Target: T1, UBE2D2(C85K)-Ub-FL-BODIPY (human | , UniProt P62837 1-147; P0CG48 1-76, C85K, ubiquitinated in vitro; BODIPY labelled in vitro (position not given))
T1 construct: UBE2D2 ubiquitin-conjugating enzyme, human, with C85K; ubiquitin, conjugated in vitro to UBE2D2(C85K); also called UBE2D2(C85K), ubiquitinated and BODIPY labelled; source: E. coli, purified, ubiquitinated and BODIPY labelled in vitro
Assay: AlphaScreen or HTRF; TR-FRET: biotinylated Cbl-b (36-427) with Src-Zap-70 fusion and ATP (enzyme reaction), UBE2D2(C85K)-Ub-FL-BODIPY and Streptavidin-Tb (binding reaction); signal at 520 nm, reference at 620 nm; used to titrate small-molecule Cbl-b inhibitors (NTX-512, NTX-447, NTX-307)
Settings: both partners purified

B1: recombinant human Cbl-b (aa 36-427), biotinylated (domain or fragment, UniProt Q13191 36-427, looked up)
chain: PKQAAADRRTVEKTWKLMDKVVRLCQNPKLQLKNSPPYILDILPDTYQHLRLILSKYDDNQKLAQLSENEYFKIYIDSLMKKSKRAIRLFKEGKERMYEEQSQDRRNLTKLSLIFSHMLAEIKAIFPNGQFQGDNFRITKADAAEFWRKFFGDKTIVPWKVFRQCLHEVHQISSGLEAMALKSTIDLTCNDYISVFEFDIFTRLFQPWGSILRNWNFLAVTHPGYMAFLTYDEVKARLQKYSTKPGSYIFRLSCTRLGQWAIGYVTGDGNILQTIPHNKPLFQALIDGSREGFYLYPDGRSYNPDLTGLCEPTPHDHIKVTQEQYELYCEMGSTFQLCKICAENDKDVKIEPCGHLMCTSCLTAWQESDGQGCPFCRCEIKGTEPIIVDPFD
modifications: biotinylated in vitro (position not given)
notes: Cbl-b, human, residues 36-427; In the assay it was mixed with a recombinant human Src (aa 254-536)-Zap-70 (aa 281-297) fusion protein and ATP ('enzyme reaction'); Detected through Streptavidin-Tb; also called Cbl-b enzyme; source: E. coli, purified and biotinylated in vitro
binding result: binds
